Literature values in paper doi:10.1101/2025.09.11.675682.
pKd: −log10 of the molar value.

Key:
Assay in all cases: ITC
Conditions in all cases: cited from earlier work
LAT (Homo sapiens) = LAT (Homo sapiens) (UniProt O43561)
[1] = biological target: LAT 125-178 (Homo sapiens) (UniProt O43561)
[2] = biological target: SLP-76 157-420 (Homo sapiens) (UniProt Q13094)
[3] = biological target: SLP-76 159-533 (Homo sapiens) (UniProt Q13094)
[4] = biological target: LAT 161-180 (Homo sapiens) (UniProt O43561)
Sequence of LAT 161-180 (Homo sapiens) (O43561 161-180): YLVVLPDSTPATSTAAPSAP

[5] = biological target: LAT 122-140 (Homo sapiens) (UniProt O43561)

Sequence of Gads 1-322 (from UniProt O89100) (O89100 whole entry): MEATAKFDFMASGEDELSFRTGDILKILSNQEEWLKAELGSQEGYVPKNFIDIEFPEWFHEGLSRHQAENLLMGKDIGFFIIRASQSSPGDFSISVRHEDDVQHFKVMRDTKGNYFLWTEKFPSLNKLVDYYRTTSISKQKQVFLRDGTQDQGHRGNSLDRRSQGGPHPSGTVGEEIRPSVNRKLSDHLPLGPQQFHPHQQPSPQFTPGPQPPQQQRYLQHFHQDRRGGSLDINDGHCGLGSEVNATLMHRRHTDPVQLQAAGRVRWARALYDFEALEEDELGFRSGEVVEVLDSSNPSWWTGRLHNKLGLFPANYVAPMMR
Sequence of SLP-76 157-420 (Homo sapiens) (Q13094 157-420): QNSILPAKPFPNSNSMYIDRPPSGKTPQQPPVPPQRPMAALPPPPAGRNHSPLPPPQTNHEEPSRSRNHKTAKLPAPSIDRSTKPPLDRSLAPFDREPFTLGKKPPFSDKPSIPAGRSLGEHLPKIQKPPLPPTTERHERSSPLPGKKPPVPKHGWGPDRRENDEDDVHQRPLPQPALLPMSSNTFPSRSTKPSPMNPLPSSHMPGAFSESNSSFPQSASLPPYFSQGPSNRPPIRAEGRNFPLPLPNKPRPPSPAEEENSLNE
Sequence of Gads 1-322 (from UniProt O75791) (O75791 1-322): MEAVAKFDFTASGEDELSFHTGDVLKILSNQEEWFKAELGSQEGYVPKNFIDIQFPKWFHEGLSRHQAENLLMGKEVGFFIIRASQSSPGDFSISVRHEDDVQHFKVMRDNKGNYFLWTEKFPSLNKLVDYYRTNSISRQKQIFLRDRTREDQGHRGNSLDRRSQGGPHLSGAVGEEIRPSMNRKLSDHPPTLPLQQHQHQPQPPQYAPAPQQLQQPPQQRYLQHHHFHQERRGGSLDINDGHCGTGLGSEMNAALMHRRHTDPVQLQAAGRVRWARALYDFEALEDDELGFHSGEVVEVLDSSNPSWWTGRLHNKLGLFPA
Sequence of PLC-γ1 550-846 (P19174 550-846): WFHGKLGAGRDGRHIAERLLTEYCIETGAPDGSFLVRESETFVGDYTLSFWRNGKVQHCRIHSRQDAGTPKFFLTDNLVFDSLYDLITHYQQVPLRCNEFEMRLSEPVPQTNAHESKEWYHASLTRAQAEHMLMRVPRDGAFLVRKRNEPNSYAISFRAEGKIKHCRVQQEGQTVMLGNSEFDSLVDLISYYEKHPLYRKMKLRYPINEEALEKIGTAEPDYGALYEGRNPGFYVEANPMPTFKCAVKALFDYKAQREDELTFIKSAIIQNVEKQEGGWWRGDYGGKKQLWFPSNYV
Sequence of LAT 125-178 (Homo sapiens) (O43561 125-178): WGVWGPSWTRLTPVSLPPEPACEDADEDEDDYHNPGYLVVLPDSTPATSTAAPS
Sequence of PLC-γ1 1-1219 (P19174 1-1219): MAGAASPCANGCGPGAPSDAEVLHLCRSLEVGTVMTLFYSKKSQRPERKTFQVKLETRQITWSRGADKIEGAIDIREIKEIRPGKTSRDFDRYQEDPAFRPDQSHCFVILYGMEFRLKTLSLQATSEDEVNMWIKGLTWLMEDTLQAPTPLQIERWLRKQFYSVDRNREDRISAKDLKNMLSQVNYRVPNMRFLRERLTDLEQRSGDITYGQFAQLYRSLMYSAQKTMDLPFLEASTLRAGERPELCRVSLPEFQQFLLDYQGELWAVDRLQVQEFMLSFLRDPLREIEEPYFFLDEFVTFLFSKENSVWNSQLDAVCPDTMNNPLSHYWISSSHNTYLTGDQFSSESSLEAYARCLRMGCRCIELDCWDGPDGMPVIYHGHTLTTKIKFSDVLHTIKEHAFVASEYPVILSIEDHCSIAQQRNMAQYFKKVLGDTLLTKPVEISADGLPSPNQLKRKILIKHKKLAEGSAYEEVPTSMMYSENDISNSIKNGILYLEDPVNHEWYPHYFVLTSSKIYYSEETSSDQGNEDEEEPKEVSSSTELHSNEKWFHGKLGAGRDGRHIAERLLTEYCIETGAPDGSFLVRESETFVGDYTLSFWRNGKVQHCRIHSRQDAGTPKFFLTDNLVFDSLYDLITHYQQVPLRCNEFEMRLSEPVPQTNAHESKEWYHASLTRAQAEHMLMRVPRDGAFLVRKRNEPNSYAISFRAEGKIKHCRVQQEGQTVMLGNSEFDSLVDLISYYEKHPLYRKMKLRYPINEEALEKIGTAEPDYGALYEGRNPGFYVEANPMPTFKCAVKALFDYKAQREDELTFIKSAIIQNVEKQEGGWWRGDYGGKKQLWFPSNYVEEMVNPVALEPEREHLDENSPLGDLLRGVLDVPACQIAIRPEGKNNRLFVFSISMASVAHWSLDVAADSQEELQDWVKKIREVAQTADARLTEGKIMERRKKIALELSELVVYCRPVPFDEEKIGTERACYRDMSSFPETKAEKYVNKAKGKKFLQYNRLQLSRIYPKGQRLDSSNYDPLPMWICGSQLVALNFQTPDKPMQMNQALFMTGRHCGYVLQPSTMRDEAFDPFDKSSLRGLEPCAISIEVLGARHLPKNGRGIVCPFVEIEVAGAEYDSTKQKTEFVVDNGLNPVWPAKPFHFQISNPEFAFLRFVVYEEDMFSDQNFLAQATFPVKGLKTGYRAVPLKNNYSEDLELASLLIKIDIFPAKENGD
Sequence of PLC-γ1 (P19174 2-1290): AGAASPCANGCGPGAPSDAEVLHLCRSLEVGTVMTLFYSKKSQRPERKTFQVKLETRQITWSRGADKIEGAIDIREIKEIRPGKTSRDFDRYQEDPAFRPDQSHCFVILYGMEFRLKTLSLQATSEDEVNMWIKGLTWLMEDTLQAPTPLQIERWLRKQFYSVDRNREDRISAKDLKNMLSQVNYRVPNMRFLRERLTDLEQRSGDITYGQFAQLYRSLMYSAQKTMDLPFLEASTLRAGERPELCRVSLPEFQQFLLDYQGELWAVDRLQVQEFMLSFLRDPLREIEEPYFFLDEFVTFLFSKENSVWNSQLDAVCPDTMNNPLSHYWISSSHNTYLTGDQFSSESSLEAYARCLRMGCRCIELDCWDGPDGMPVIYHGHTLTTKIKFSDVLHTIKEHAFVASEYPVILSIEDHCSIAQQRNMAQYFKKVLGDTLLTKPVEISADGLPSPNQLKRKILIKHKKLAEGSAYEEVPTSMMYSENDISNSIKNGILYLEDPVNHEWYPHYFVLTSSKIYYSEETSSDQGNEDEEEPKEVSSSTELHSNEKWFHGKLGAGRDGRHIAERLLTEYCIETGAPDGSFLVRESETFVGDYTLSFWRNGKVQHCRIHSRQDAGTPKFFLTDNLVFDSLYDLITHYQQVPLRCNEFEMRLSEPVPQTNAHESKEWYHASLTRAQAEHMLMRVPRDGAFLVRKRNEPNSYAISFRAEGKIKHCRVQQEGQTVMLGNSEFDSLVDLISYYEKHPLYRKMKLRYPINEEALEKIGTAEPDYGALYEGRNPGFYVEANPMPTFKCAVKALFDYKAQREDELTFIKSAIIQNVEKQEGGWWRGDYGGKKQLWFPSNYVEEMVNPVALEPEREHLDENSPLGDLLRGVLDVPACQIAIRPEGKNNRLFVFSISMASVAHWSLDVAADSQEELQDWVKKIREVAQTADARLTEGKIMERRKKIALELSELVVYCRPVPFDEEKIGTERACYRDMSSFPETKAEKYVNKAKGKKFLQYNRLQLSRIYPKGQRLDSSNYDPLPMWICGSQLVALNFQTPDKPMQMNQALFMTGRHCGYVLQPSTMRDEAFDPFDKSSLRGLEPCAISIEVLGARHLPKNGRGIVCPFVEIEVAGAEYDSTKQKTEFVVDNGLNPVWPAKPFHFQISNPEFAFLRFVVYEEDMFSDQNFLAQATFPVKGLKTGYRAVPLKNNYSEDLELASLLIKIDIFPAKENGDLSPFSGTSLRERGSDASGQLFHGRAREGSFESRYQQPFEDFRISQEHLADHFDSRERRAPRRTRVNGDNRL
Sequence of SLP-76 159-533 (Homo sapiens) (Q13094 159-533): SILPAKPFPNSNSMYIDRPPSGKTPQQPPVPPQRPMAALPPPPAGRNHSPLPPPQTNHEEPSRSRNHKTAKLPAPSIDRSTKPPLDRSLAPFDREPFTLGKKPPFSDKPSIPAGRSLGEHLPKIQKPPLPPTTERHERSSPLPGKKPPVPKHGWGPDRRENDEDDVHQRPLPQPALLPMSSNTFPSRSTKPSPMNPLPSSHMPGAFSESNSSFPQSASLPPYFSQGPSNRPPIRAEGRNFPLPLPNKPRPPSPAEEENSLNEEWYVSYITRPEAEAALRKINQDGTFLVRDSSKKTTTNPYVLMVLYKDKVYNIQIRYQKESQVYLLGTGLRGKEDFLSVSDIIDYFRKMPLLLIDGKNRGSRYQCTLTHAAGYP

## Gads 1-322 (from UniProt O89100)
LAT (Homo sapiens)
  pKd: 6.79
[1]
  pKd: 6.67
[2]
  pKd: 7.72
[3]
  pKd: 8.44

## Gads 1-322 (from UniProt O75791)
[4]
  pKd: 6.79
[2]
  pKd: 7.72

## PLC-γ1 (from UniProt P19174)
[2]
  pKd: 5.48

## PLC-γ1 550-846 (from UniProt P19174)
[5]
  pKd: 7.21
[2]
  pKd: 5.48

## PLC-γ1 1-1219 (from UniProt P19174)
[1]
  pKd: 7.08
